Data taken from the DeepSol protein solubility set.

assay: soluble on expression in E. coli; label from the status in PepcDB or PDB records

Row | Sequence | soluble on expression in E. coli
1 | MSLTRDAASITPARVRAHVFRYPVSTPVKTSFGTMHDRPAVLVEVEDSDGAVGWGEVWCNFPACGAEHRARLVETVLAPLLTARAFADPAQAFAHLEARTAVLAIQTGEPGPLAQAIAGLDIALCDLAARRAGQPLWAWLGGSGDRIGVYASGINPENPEDVVARKAAEGYRAFKLKVGFDDARDVRNALHVRELLGAATPLMADANQGWDLPRARQMAQRLGPAQLDWLEEPLRADRPAAEWAELAQAAPMPLAGGENIAGVAAFETALAARSLRVMQPDLAKWGGFSGCLPVARAVVAAGLRYCPHYLGAGIGLQASAHLLAAVPGLASPGLLEVDANDNPLRSLLSPALATLHEGRITLGGAPGLGVTPDLAALRAACAAREGHHHHHH | soluble
2 | MSLTRHQRLFVWTVTHGFREYGVAQQKTHHNTMSPEAAIEWVVRQEPGIFIFKDLHPFISSPAVTRWLREAIASFKGTEKAIILMSPYQETPIELEKDVVVLDFALPDLVTLDGVLGQQLGKSRHALGEDSREKLLKAALGLTKDEAEKVYRKAYVKAGQLTEGEVEIVLSEKKQMIRRNEGHHHHHH | not soluble
3 | MSLTTGRISELLSPNYADLNDPRPIFDWMQVIRKRAVVYVGLDALSDTEVAAAVGNSMFSDLVSVAGHIYKHGVDDGLPGSLAGGKVRINLHADEFNELIGDEFIPMVNKAGGAGVQVTAYTQTMSDIEAKIGSRAKAGQIIGNFNNLFMLRVRETATAELLTNQLPKVQIYTSTPASGANDAINNKKAAFTSSSHDQVQMTSVPMLEPAHIVGLPKGQAFALLEGGNLWKIRMPLPAVDPDEVMPKSLQELAAGMRKGQAANSEGHHHHHH | not soluble
4 | MSLTTMKEIAEQTGVSISTVSLVLNGRDEGRVNPALAKLVRNKATELGYKINPLARSLRTNKTRILGFISEEVATTPYAGGIILGAQDAASAYGYMLFTVSTDGKASEENEIATLKRYGVDGFFYSKMSNRIAHVPESLSDYPVVMVDATDYENKVPSVEPDEFMIGYDATIRLLQADCKRIAYVGCAENMIAQDGRLAGYCTALQEAGRAFNPSLVCNVMNDGPALRAVNKLFDDEHPDGFFCFNDARAWYVYECAARRGLTVGKDISVVGVDNHRVFAETLEPQLTTVELPHYEMGYWSACKLISMIEGKDVDTSSCPSARASLPPLDAPIPAKIHCALLEKDSVISEGHHHHHH | soluble
5 | MSLTTRVIALDLDGTLLTPKKTLLPSSIEALARAREAGYQLIIVTGRHHVAIHPFYQALALDTPAICCNGTYLYDYHAKTVLEADPMPVNKALQLIEMLNEHHIHGLMYVDDAMVYEHPTGHVIRTSNWAQTLPPEQRPTFTQVASLAETTQQVNAVWKFALTHDDLPQLQHFGKHVEHELGLECEWSWHDQVDIAHGGNSKGKRLTKWVEAQGWSMENVVAFGDNFNDISMLEAAGTGVAMGNADDAVKARANIVIGDNTTDSIAQFIYSHLIEGHHHHHH | not soluble
6 | MSLTTVLGIETSCDETGVGIARLDPDGTVTLLADEVASSVDEHVRFGGVVPEIASRAHLEALGPAMRRALAAAGLKQPDIVAATIGPGLAGALLVGVAAAKAYSAAWGVPFYAVNHLGGHLAADVYEHGPLPECVALLVSGGHTHLLHVRSLGEPIIELGSTVDDAAGEAYDKVARLLGLGYPGGKALDDLARTGDRDAIVFPRGMSGPADDRYAFSFSGLKTAVARYVESHAADPGFRTADIAAGFQEAVADVLTMKAVRAATALGVSTLLIAGGVAANSRLRELATQRCGEAGRTLRIPSPRLCTDNGAMIAAFAAQLVAAGAPPSPLDVPSDPGLPVMQGQVEGHHHHHH | soluble
7 | MSLTVDFSRFPLAPGDRVLDLGCGAGRHAFECYRRGARVVALDQNAEEIREVAKWFAAMEEAGEAPAGATATAMEGDALALPFPDESFDVVIISEVMEHIPDDKGVLAEMVRVLKPGGRIAITVPRYGPEKVCWTLSDAYHEVEGGHIRIYRADQLLTRIREAGLKPYGTHHAHALHSPYWWLKCAFGVDNDKALPVRAYHKLLVWDIMKKPLATRVAEQALNPLIGKSFVAYATKPHLPPVDAEGHHHHHH | soluble
8 | MSLTVNNVGLRYGDKKLFEDVSIKFLPGNCYGLIGANGAGKSTFLKVLSGELDSQSGNVHIGSGERLAVLRQDHFQYDNELVLNTVIMGHERLYKIMDEKNAIYMKEDFSDEDGIRAAELEGEFAELDGWEAESDAAVLLNGLGIPTDLHGKLMKDLTGGEKVKVLLAQALFGKPDILLLDEPTNHLDIRAIHWLEEFLINFDNTVIVVSHDRHFLNKVCTHIADLDFSKIKLYVGNYDFWYESSQLAQTMMGDRNKKKEEKMKELQDFIARFSANASKSKQATSRKKMLEKITLEDIQPSSRRYPFIQFKPDREVGNDLLTVTNLSKTIDGVKILDNLSFSINRNDKVALVGDDEVAKTVLFQILAGEMEPDEGSYKWGITTSQSYFPKDNSEFFEENDMSLVEWLRQFSPEDDSEAFLRGFLGRMLFSGDEVLKKVRVLSGGEKVRCMLSKMMLSGSNVLLLDEPTNHLDLESITALNNGLEAFKGAMIFASHDHQLLQTIATRIINLSKDQFYNKEISYDEYLKEVMNVAEGHHHHHH | soluble
9 | MSLTVSKINEKATPVKKWTVYLVQHTHTDIGYTKPQTEILSEHLRYIDYAIEYCEQTKDYTNDAKFRWTCESAWAVDEYLKNRPEEQVNKLKKYIAEGQIEVASMYFNMSEIVDENSFKTFLQPVKEFRKHGIPSALAMQNDVNGIAWCLADYLPDLGIKYLWMGEHHYKSQVPFNMPTVFQWESPSGKPILTYRADHYNTGNFWGIEQGDIQKTEPKLLHYLSELERKHYPFDAVGVQYSGYFTDNSPPSIIECKLIREWNEKYAYPKLRSATASEFMDYVTERYGDKIPAYRAAYPDWWTDGFGSAARETAASRKTHSDMTAVEGLLSMAVLKDKCLPQATHQQIEHIHESLLFYDEHTFGASESVSDPLCENSQVQWGEKSAYAWEAVKRTQMLYETSVGLLQGDLRRGKNPTLTIFNTLNWKRSEMLTVYIDFEVIPRNQFFEITDFQGHSLKVQPIRYRREGCYYAIFAEDIPPMGYKTFEIVFKQPSTDTGTITINNASIENHFYKLQLNPDKGTIQSLYDKELNCELVDSSSPWELGAFIYEKLGNRDQLAQYRLDDYNRTGLSECRIIDSSNGPIYQRILLQGKSPGTDEAFGVNLEIKLYHDTKRIELEYAIKRLPETDPSGIYVAFPFQLPEGKLAFDVQGGTVISGKNQLEGTSTDWNTVQNFVSVQNNQAQIIIGSSLIPLYQLGDINLGKFQYQKQYERPHVYSWVMNNYWNTNFKASQEGEFRWSYHLTSSVDPSNNLATKFGWSSRIPLYARVMPTGTENHKPTEYSAFHFEKDNFLMTSCTPSKEEGYILLNIREIDGKRTNLRILNEDGQTIPFTIVNAIEEKLENETSEHIFEGYQNKFIKIKREGHHHHHH | soluble
10 | MSLTYLIKVLELFSGVGSFSISLNTLGIEHEIVGFSETRKTATQLFCKLHNKKESENLGDVRNVSAKDLDVDLLVFGSPCQSFTRAGKQGGGLKGSDTRSALMWEAVRIMEECKPKWIVWENVPDAISRKNMPNFQNYMDELDSLNYNTYYKVLNAHELGSAQKRKRLFSISIRKDIDNGKFEFLDLTREPKHLETYLENNDQPDIANEHIHSHLILGKDENGYKIKNGTKKGYLYANNGDGIDLAYVTSKARRGRVQVKACQTIMRGKTLGTINDGVLRFYSPREYWRLQEMPDELYKHVEACNFKPSTAYDVVGGVINQLHLKTVFLSLKKAFNEGHHHHHH | not soluble
11 | MSLVLRKRSMKLGDLKVHTLAIPLREPIQFSWEPFPHPVYVFSIVEVEAGGFKGYSAIEFGAAYKHFLETTVKLTIQGLDIEIEDVDARLLEVGSWAIQRLGALEVAIWDLIAKREGLPLYRLLGGGRRKVKVYASTGRLLSAEETVKMVEKYAELGIDVVKLRFRRERINEDLEVLKAVAREFSDVKISVDANQAWSYTPPYWSRKKAMKVAKELENFEVLWLEEPLWKDDVEGYRWLRENTSIEISGGELEHGIQRFRMLIEGGAFDIVQADAVYSNGIQECRKVAALAEAFNLKFMPHAWDPGLGWLANLHLAASLPEKLCPYIETPLDPLWWNEVMFGVLNGEVELEKGYAKLPEQPGLGFEPDEEKMKKFRIAEGHHHHHH | not soluble
